Target: T1, purified recombinant HIS epitope-tagged NOTCH3 extracellular domain (human, UniProt Q9UM47 40-1643, glycosylated)
T1 construct: NOTCH3, human, complete extracellular domain; written as one chain so that the self-association rows stand for chain with chain; also called N3 ECD; NOTCH3-ECD protein; source: PEC.3.30 (modified Per.E2A) cells, purified from supernatant (HisTrap HP, Superdex 200); not shown: HIS, C-terminal, kept
Assay: SPR; Biacore T200; NOTCH3-ECD immobilized on NTA Series S chip by nickel-NTA capture-coupling (about 3500 RU); peptides flowed at 30 μL/min; 50 mM HEPES, 150 mM NaCl, 25 °C; steady-state affinity model
Details: both partners purified

T1 sequence (Q9UM47 40-1643): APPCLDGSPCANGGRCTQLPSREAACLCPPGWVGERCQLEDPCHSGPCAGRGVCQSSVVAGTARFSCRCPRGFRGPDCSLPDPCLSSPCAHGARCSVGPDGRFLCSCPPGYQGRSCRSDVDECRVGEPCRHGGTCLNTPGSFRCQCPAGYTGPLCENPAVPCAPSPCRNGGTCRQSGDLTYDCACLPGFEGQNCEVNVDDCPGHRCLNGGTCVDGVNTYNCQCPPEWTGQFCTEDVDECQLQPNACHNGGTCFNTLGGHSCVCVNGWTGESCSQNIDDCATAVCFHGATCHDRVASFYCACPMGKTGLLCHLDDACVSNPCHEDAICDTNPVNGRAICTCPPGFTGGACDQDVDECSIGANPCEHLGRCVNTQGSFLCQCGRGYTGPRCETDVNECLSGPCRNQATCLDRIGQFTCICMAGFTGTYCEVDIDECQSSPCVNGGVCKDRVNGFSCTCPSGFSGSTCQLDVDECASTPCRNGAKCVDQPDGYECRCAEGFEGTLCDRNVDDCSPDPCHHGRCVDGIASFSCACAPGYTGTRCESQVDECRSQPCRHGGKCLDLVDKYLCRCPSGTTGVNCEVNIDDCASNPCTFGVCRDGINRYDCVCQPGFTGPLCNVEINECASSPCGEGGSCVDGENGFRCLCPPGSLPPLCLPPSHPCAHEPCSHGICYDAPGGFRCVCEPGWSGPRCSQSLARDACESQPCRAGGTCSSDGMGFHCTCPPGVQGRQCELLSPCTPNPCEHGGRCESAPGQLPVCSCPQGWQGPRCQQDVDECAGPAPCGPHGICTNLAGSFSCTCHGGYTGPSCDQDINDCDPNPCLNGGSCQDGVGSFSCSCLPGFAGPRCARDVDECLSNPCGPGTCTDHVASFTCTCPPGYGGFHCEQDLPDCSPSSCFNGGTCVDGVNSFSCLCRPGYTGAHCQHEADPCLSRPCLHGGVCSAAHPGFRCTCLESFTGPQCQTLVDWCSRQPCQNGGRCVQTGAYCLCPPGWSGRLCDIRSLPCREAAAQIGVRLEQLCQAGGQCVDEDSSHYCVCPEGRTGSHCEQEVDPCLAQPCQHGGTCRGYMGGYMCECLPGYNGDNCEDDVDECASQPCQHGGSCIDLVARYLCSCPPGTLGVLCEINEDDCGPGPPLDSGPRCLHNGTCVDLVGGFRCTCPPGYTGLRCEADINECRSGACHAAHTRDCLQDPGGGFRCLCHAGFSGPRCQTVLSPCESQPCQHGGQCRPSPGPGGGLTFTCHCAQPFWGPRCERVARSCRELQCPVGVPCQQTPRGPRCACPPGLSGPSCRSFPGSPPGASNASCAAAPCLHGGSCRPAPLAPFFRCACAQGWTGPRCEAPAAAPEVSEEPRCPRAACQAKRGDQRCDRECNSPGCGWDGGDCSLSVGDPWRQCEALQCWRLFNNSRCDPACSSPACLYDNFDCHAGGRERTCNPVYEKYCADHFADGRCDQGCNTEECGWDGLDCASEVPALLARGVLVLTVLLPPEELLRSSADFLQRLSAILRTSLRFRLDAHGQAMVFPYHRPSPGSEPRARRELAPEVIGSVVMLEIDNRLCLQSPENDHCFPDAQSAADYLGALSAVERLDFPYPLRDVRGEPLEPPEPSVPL

B1: N34 peptide (peptide)
peptide: EKYCADHFADGR
notes: NOTCH3, human, peptide centred on the helix encompassing the core dimerization motif of the NRR; also called N3 peptide
Question: Does B1 bind?
Answer: Result: binds

Source: publication PMC13193388, “Dimerization‐dependent NOTCH receptor transactivation unveils a class of highly selective NOTCH signalling inhibitors” (The Febs Journal, 2025)
